Columns and labels:
human THAP2, full length = molecular target: T1, human THAP2, full length (human, UniProt Q9H0W7 1-228); assay: yeast two-hybrid, Par4DD bait
T1 construct: Two-hybrid fusion or 35S-labelled in vitro translation product

human THAP3, full length = molecular target: T2, human THAP3, full length (human, UniProt Q8WTV1 1-239); assay: yeast two-hybrid, Par4DD bait
T2 construct: Two-hybrid fusion or 35S-labelled in vitro translation product
T2 sequence: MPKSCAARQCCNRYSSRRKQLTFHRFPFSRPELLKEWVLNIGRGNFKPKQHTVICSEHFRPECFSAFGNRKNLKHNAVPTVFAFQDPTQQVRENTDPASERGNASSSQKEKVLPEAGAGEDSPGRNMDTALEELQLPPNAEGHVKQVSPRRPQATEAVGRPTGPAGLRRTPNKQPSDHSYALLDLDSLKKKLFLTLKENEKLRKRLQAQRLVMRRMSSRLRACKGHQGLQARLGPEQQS

[1] = molecular target: T3, THAP1ΔQRCRR mutant (deletion of residues 168-172) (human, UniProt Q9NVV9 1-213); assay: yeast two-hybrid and in vivo interaction assay
T3 sequence: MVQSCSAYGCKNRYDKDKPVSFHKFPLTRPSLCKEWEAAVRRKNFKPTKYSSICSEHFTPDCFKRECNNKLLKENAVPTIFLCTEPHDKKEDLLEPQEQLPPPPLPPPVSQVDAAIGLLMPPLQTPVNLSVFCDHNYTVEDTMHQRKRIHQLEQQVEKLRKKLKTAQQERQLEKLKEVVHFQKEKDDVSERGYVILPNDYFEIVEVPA

[2] = molecular target: T4, THAP1-C3 deletion mutant (amino acids 143-213) (human, UniProt Q9NVV9 143-213); assay: in vivo interaction test: GFP-THAP1 mutant and myc-Par4DD co-expressed in primary human endothelial cells, confocal immunofluorescence
T4 construct: Gal4 fusion, in vitro translation product or GFP fusion according to assay
T4 sequence: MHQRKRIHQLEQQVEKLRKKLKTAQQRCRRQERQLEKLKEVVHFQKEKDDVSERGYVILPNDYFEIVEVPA
Description: (§1) To provide further evidence for a physiological interaction between THAP1 and Par4 in vivo interactions between THAP1 and PAR4 were investigated. For that purpose, confocal immunofluorescence microscopy was used to analyze the subcellular localization of epitope-tagged Par4DD in primary human endothelial cells transiently cotransfected with pEF-mycPar4DD eukaryotic expression vector and GFP or GFP-THAP1 expression vectors (pEGFP.C2 and pEGFP.C2-THAP1, respectively). To generate pEF-mycPar4DD, mycPar4DD (amino acids 250-342) was amplified by PCR using pGBKT7-Par4DD as template, with primers myc.BD7 (5′-[…]-3′) (SEQ ID NO: 195) and Par4.9 (5′-[…]-3′) (SEQ ID NO: 196), and cloned into the XbaI and NotI sites of the pEF-BOS expression vector (Mizushima and Nagata, Nucleic Acids Research, 18:5322, 1990). Primary human endothelial cells from umbilical vein (HUVEC, PromoCell, Heidelberg, Germany) were grown in complete ECGM medium (PromoCell, Heidelberg, Germany), plated on coverslips and transiently transfected in RPMI medium using GeneJammer transfection reagent according to manufacturer instructions (Stratagene, La Jolla, Calif., USA). Cells co-transfected with pEF-mycPar4DD and GFP-tagged expression constructs were allowed to grow for 24 h to 48 h on coverslips. Cells were washed twice with PBS, fixed for 15 min at room temperature in PBS containing 3.7% formaldehyde, and washed again with PBS prior to neutralization with 50 mM NH₄Cl in PBS for 5 min at room temperature. Following one more PBS wash, cells were permeabilized 5 min at room temperature in PBS containing 0.1% Triton-X100, and washed again with PBS. Permeabilized cells were then blocked with PBS-BSA (PBS with 1% bovine serum albumin) for 10′ and then incubated 2 hr at room temperature with mouse monoclonal antibody anti-myc epitope (mouse IgG1, 1/200, Clontech) diluted in PBS-BSA. Cells were then washed three times 5 min at room temperature in PBS-BSA, and incubated for 1 hr with Cy3 (red fluorescence)-conjugated goat anti-mouse (1/1000, Amersham Pharmacia Biotech) secondary antibodies, diluted in PBS-BSA. After extensive washing in PBS, samples were air dried and mounted in Mowiol. Images were collected on a Leica confocal laser scanning microscope.

[3] = molecular target: T5, THAP1-N1 deletion mutant (amino acids 1-90) (human, UniProt Q9NVV9 1-90); assay: as above
T5 construct: Gal4 fusion, in vitro translation product or GFP fusion according to assay; also called zinc finger domain of THAP1
T5 sequence: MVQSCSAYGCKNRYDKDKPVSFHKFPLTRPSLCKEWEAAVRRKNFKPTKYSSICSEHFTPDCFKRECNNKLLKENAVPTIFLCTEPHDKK
Description: as §1

[4] = molecular target: T6, THAP1-N2 deletion mutant (amino acids 1-166) (human, UniProt Q9NVV9 1-166); assay: as above
T6 construct: Gal4 fusion, in vitro translation product or GFP fusion according to assay
T6 sequence: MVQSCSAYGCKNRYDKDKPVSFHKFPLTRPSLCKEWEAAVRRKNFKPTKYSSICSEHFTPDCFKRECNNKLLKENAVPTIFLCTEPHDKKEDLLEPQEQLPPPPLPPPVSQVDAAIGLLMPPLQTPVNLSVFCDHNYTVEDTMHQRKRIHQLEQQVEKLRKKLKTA
Description: as §1

Measured: binding result

T1 sequence (Q9H0W7 whole entry, the tested form may be a part): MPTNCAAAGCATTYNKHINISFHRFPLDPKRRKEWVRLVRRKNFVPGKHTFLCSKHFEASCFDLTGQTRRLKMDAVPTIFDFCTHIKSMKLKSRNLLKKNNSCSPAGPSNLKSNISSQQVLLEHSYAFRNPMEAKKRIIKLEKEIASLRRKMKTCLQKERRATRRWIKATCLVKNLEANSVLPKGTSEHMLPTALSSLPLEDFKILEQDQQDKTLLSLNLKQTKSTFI

B1: Par4 leucine zipper/death domain (Par4DD, amino acids 250-342) (other)
chain: GFPRYNRDANVSGTLVSSSTLEKKIEDLEKEVVTERQENLRLVRLMQDKEEMIGKLKEEIDLLNRDLDDIEDENEQLKQENKTLLKVVGQLTR
notes: Gal4 fusion in two-hybrid; also called myc-Par4DD
binds: human THAP2, full length | human THAP3, full length | [2]
no binding: all other assays above

— patent US20060270596A1 (CENTRE NATIONAL DE LA RECHERCHE SCIENTIFIQUE CNRS, published 2006)
